Consider 1 molecule from patent US20180044422A1 (NEW YORK UNIVERSITY, published 2018).

The target of assay [1] is T1, Galectin-3 (Biolegend) (Mus musculus (Mouse), UniProt P16110 2-264).
T1 construct: The sentence reads 'recombinant mouse Galectin-9 ..., Galectin-3, or Galectin-4'; whether 'mouse' also applies to Galectin-3 is not clear
The assay is described as follows: ELISA, plate coated with Galectin-3, Dectin-1 IgG Fc at 2.5 µg/ml (concentration from paragraph 191, not on the sheet), detection with anti-IgG-HRP [cont.) I]. The procedure:
(§1) To investigate if Galectin-9 can bind with Dectin-1, Protein G-magnet beads (2 ml; Dynabeads) were loaded with Dectin-1 IgG Fc (1 mg) or control IgG Fc before washing and blocking. Subsequently, beads were incubated with recombinant Galectin-9 ([…]; R&D Systems) for 30 min, washed, and stained with PE-conjugated anti-Galectin-9 (Biolegend, San Diego Calif.). Galectin-9 specific staining was determined by flow cytometry. To investigate the interaction between Galectin-9 and Dectin-1 by ELISA, plates (Maxisorp, Nunc, St. Louis, Mo.) were coated with recombinant mouse Galectin-9 ([…]; R&D Systems, Minneapolis, Minn.), Galectin-3, or Galectin-4 (both […]; Biolegend) for 16 hours at 4° C., blocked with 1% BSA/PBS for 1 hour, and incubated with increasing doses of Dectin-1 IgG Fc or control IgG Fc for 2 hours. The Galectin-bound Dectin-1 IgG Fc was detected with anti-IgG-HRP. […] Bead-bound precipitates were resuspended with loading buffer, resolved by SDS-PAGE under reduced conditions for western blotting using mAbs specific for Galectin-9. […] Dectin-1 signaling was measured by detection of secreted embryonic alkaline phosphatase. […] Syk phosphorylation was measured by flow cytometry at 3 hours.

Assay [2] deals with T2, Galectin-4 (Biolegend) (Mus musculus (Mouse), UniProt Q8K419 1-326).
T2 construct: The sentence reads 'recombinant mouse Galectin-9 ..., Galectin-3, or Galectin-4'; whether 'mouse' also applies to Galectin-4 is not clear
T2 sequence: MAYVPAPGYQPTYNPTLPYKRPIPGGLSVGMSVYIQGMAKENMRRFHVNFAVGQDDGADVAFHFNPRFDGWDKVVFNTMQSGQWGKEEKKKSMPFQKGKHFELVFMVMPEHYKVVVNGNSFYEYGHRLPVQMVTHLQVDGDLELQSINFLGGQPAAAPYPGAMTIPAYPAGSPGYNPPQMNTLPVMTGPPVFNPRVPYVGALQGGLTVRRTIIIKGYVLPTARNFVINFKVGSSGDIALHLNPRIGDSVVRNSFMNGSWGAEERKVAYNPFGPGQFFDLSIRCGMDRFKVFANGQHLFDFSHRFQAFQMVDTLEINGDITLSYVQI
Put plainly: ELISA, plate coated with Galectin-4, Dectin-1 IgG Fc at 2.5 µg/ml (concentration from paragraph 191, not on the sheet), detection with anti-IgG-HRP [cont.) I]. The procedure:
as §1
(ELISA stands for enzyme-linked immunosorbent assay.)

T1 sequence (P16110 2-264 limits assumed): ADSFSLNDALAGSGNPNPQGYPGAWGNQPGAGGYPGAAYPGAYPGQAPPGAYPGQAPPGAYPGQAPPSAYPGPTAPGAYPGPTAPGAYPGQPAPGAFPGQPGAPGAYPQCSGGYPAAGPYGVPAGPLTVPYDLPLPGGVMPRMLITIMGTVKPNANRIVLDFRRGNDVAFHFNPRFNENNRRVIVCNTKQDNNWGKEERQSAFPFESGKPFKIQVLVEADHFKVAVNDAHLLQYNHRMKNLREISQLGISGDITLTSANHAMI

B1: human IgG Fc-conjugated Dectin-1 fusion protein (murine Dectin-1 IgG Fc; fc-mdec1a, InvivoGen) (Fc fusion, mouse, UniProt Q6QLQ4 69-244, looked up)
chain: EYGHNSGRNPEEKDNFLSRNKENHKPTESSLDEKVAPSKASQTTGGFSQPCLPNWIMHGKSCYLFSFSGNSWYGSKRHCSQLGAHLLKIDNSKEFEFIESQTSSHRINAFWIGLSRNQSEGPWFWEDGSAFFPNSFQVRNTAPQESLLHNCVWIHGSEVYNQICNTSSYSICEKEL
notes: Bought reagent (fc-mdec1a; InvivoGen); also called Dectin-1 Fc; not shown: human IgG Fc
For the molecule B1, the binding result in assay [1] and in assay [2] was “no binding (tested: 2.5 µg/ml)” in each case.
